What was measured:
[1] = molecular target: T1, human transferrin receptor 1 ectodomain, biotinylated (human, UniProt P02786 89-760, biotinylated in vitro (Avidity kit) at the C-terminal Avi tag); test: single concentration biolayer interferometry (1 µM design)
T1 construct: extracellular domain; Expressed as IgK-sFLAG-His-Sen-TEV-TfR1-his-Avi in the Daedalus system; The N-terminal expression tag was cleaved with TEV; In yeast display it was detected with streptavidin-phycoerythrin; also called hTfR; hTfR ectodomain; not shown: C-terminal his-Avi tag (printed 'his-Avin')

[2] = molecular target: T1, human transferrin receptor 1 …; test: biolayer interferometry, biotinylated hTfR on streptavidin biosensors
[3] = molecular target: T1, human transferrin receptor 1 …; test: single concentration biolayer interferometry, biotinylated hTfR on streptavidin biosensors

T1 sequence (P02786 89-760): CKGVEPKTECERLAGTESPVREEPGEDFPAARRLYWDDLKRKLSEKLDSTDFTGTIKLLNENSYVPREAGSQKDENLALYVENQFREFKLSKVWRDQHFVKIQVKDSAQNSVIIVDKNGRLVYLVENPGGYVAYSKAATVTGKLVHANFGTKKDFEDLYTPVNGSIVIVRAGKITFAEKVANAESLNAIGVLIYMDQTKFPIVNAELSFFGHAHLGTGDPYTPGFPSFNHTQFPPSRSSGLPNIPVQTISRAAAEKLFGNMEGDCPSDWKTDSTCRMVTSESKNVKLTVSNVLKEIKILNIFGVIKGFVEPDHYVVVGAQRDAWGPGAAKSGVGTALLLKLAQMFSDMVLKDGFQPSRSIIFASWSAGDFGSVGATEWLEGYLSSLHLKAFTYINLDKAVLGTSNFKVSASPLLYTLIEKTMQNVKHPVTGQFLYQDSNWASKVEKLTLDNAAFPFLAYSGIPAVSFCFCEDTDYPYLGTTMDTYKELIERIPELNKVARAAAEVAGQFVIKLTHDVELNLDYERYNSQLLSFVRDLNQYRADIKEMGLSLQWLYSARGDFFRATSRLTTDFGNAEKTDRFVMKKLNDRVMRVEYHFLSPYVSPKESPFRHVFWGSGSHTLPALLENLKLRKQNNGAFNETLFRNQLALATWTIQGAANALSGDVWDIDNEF

| Binder | binding result [1] | further results |
| --- | --- | --- |
| 3DS11 (designed binder, Expressed in E. coli; the N-terminal His tag was cleaved with TEV) DLEERVRKAVNEAQEEAKRNNLDENEAALEAALRLGVVVLVVVDSEEQAERVAKYVHKLVPSVRVVIYNNLVFFHVDTDEEARRVYEAAERAQ | binds |  |
| 3DS6 (designed binder, Expressed in E. coli; the N-terminal His tag was cleaved with TEV) DKEDELRELAKELVREYEKRGVSEEEIALLVALAANFAVVIVFDNEEQAERAAKYIKKKLPSAVIVIFNNFVFVYVDSREDERIAWELAQEAQ | binds |  |
| 3DS23 (designed binder, Expressed in E. coli; the N-terminal His tag was cleaved with TEV) DEEEEEKEEIRRQLDEARERGVSEEEAAIEVAQNFNFIVVVVVDSEEEAERVAEYVRREVPRVHIVIVQNVVFFRVDSDEDARRVWELAQKAQ | binds |  |
| 2DS25 (purified from E. coli) (designed binder, Expressed in E. coli with an N-terminal histidine tag and a TEV site; Eluted as a monomer on SEC) DEEEIQKAIEELLRKGVSEEEAAIIIAQRFNVAVVVVVQDERQAKHISEYIRRYIPEADVILFANIVVIKVETEELRKRVWEAAQKAY |  | binding result [2]: binds |
| 2DS25_KO (W81A/Q85A) (designed binder) DEEEIQKAIEELLRKGVSEEEAAIIIAQRFNVAVVVVVQDERQAKHISEYIRRYIPEADVILFANIVVIKVETEELRKRVAEAAAKAY |  | binding result [3]: no binding |

The next lines start with results.

| binding result [1] | Binder | further results |
| --- | --- | --- |
| binds | 3DS2 (designed binder, Expressed in E. coli; the N-terminal His tag was cleaved with TEV) TEDEEYEERVREALEEAKKKNEHNEELVAQIALLILGAVVVIVAESEEAAKRAAQYVRERVPNAKVYVFDNFVFVHAESREDQEAAWRAAQEAM |  |
| binds | 3DS10 (designed binder, Expressed in E. coli; the N-terminal His tag was cleaved with TEV) TEEERLREEVKRVAQRAEEEGANEEEIAQILLLALNAAVVVVVESEEQAERVAQYIREVVPEALVIVYNNFVVIFVESDEAARRAWEAAERAQ |  |
